Patent US12098186 (NATIONAL TECHNOLOGY AND ENGINEERING SOLUTIONS OF SANDIA, dated 2024)
Where two headings read alike, the source gives them in different places.

What was measured:
[1] = molecular target: T1, SARS-CoV-2 receptor-binding domain (RBD) of the spike protein (SARS-CoV-2, UniProt P0DTC2 319-541); experiment: cell-based or functional assay
[2] = molecular target: T1, SARS-CoV-2 receptor-binding domain …
[3] = molecular target: T1, SARS-CoV-2 receptor-binding domain …; remark: listed apart in the source
[4] = molecular target: T1, SARS-CoV-2 receptor-binding domain …; remark: listed apart in the source
[5] = molecular target: T1, SARS-CoV-2 receptor-binding domain …; remark: listed apart in the source

B1: SP1B4-U biparatopic nanobody construct (SP1B4 and U nanobodies on heterodimeric human IgG1 Fc) (bispecific antibody, V domains shown, not shown: a dimerising Fc or GST)
V domain 1: EVQLQASGGGFVQPGGSLRLSCAASGRAFGIYRMGWFRQAPGKEREFVSAISGGDAGHTRYADSVKGRFTISRDNSKNTVYLQMNSLRAEDTATYYCAYWDYNGVVPFFKYWGQGTQVTVSS
V domain 2: QVQLVESGGGLVQPGGSLRLSCAASGFTLDYYAIGWFRQAPGKEREGVSCISSSGGSTHFADSVKGRFTISRDNAKNTVYLQMNSLIPEDTAVYYCAAQSGSYYWCGSDWHEYEYWGQGTQVTVSS
- Neutralization EC50 [1]: 0.025 nM
- Kd [2]: 2.2 nM
- Kd [3]: 2.2 nM

B2: SP1D9-U biparatopic nanobody construct (SP1D9 and U nanobodies on heterodimeric human IgG1 Fc) (bispecific antibody, V domains shown, not shown: a dimerising Fc or GST)
V domain 1: EVQLQASGGGFVQPGGSLRLSCAASGRYDSYVRMGWFRQAPGKEREFVSAISGGGDKSTWYADSVKGRFTISRDNSKNTVYLQMNSLRAEDTATYYCANAQLGPAYDKIGYWGQGTQVTVSS
V domain 2: QVQLVESGGGLVQPGGSLRLSCAASGFTLDYYAIGWFRQAPGKEREGVSCISSSGGSTHFADSVKGRFTISRDNAKNTVYLQMNSLIPEDTAVYYCAAQSGSYYWCGSDWHEYEYWGQGTQVTVSS
- Kd [4]: 2 nM

B3: SP3H4-U biparatopic nanobody construct (SP3H4 and U nanobodies on heterodimeric human IgG1 Fc) (bispecific antibody, V domains shown, not shown: a dimerising Fc or GST)
V domain 1: EVQLQASGGGFVQPGGSLRLSCAASGTAYGWSRMGWFRQAPGKEREFVSAISRASAGYAQYADSVKGRFTISRDNSKNTVYLQMNSLRAEDTATYYCAFPLHDQGEPYGWYWGQGTQVTVSS
V domain 2: QVQLVESGGGLVQPGGSLRLSCAASGFTLDYYAIGWFRQAPGKEREGVSCISSSGGSTHFADSVKGRFTISRDNAKNTVYLQMNSLIPEDTAVYYCAAQSGSYYWCGSDWHEYEYWGQGTQVTVSS
- Kd [5]: 0.79 nM
- Neutralization EC50 [1]: 0.023 nM
- Kd [3]: 0.79 nM
